Target: GPIba (CD42b) (human) (UniProt P07359)
Experiment: cell-based or functional assay

Chain of UniProt P07359 (P07359 17-652): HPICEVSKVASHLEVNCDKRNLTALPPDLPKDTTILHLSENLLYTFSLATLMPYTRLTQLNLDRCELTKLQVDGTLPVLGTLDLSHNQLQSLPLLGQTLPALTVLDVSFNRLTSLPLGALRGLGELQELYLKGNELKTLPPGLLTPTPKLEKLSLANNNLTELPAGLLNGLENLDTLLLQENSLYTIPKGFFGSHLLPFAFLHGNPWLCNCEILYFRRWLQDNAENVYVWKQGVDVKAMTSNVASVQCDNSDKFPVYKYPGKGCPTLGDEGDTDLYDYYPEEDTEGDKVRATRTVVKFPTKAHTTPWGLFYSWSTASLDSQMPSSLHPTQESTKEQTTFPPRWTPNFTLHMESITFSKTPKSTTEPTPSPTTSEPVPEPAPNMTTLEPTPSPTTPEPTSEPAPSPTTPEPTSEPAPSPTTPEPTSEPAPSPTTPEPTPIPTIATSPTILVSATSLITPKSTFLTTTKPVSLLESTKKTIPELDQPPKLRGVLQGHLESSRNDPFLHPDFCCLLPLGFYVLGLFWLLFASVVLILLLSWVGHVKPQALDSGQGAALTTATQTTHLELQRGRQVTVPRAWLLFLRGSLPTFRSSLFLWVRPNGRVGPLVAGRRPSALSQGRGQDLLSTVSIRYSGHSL

HIP1 antibody
ristocetin agglutination reaction of human peripheral blood platelets (maximum light transmission): > 10 µg/mL

From patent US20140127815A1
